Experimental data published in PMC9765456.

Biological target: AP2-μ2 (plasmid-encoded: μ2-HA; μ2-myc in AP2 core and hemicomplex) (UniProt P84092)
Test: anti-FLAG co-IP, Western blot
Conditions: reference: wild type; sites S31,S32

HPV-16 E7 (from UniProt P03129) S31A/S32A
binding against the reference: weaker
